Drawing on paper PMC3882260, this text covers lowest CBLN4-Fc concentration for one substance.

This test addresses Flag-NEO1 (UniProt Q92859). Nature of the test: immunostaining of cells or tissue; plate-based cell binding in 384-well plates: transfected COS-7 cells, blocked with PBS 1% BSA, CBLN4-Fc for 1 h on ice, fixed, detected with Alexa Fluor-488 anti-human IgG; candidate screen, titration series and DCC domain mapping.

Chain of Flag-NEO1 (Q92859 34-1461): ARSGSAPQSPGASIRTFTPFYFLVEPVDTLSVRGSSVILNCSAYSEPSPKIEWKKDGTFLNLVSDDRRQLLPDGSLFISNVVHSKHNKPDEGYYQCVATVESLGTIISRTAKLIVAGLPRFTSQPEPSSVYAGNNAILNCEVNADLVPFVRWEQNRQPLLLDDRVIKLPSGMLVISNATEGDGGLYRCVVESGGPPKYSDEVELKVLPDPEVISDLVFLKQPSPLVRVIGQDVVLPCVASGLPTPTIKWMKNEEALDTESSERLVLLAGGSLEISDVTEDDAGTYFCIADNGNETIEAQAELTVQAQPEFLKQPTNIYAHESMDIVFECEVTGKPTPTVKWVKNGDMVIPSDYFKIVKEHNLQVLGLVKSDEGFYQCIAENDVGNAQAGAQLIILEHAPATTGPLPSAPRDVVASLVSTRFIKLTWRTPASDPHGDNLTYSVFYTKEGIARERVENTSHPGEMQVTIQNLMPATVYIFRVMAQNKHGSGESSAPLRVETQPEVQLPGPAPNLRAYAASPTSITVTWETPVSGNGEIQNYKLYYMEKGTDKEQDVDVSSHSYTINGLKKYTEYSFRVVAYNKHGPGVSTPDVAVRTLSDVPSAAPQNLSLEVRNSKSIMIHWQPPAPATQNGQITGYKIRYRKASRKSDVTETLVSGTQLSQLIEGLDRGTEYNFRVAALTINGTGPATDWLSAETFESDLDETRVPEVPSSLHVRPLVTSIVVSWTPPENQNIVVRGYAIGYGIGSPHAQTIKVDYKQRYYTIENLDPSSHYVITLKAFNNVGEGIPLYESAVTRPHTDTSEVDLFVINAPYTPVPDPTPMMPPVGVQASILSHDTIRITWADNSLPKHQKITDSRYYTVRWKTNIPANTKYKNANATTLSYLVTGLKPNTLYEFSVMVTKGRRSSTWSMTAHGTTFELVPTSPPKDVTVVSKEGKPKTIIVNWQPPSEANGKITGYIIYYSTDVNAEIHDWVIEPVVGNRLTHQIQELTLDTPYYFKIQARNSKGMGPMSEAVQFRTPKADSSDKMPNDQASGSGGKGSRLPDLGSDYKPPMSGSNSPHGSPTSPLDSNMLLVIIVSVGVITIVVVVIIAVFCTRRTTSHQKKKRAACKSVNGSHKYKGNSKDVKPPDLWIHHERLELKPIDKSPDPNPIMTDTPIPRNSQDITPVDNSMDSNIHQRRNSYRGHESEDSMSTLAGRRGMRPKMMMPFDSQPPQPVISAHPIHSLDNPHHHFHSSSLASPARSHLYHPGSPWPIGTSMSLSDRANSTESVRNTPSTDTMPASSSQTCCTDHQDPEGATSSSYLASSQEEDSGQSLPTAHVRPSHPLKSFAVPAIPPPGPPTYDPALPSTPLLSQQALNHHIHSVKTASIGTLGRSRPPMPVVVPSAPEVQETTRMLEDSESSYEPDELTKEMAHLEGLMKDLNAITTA

As for “human CBLN4 (M1-L201) with a C-terminal Fc tag (from UniProt Q9NTU7 28-201) (Fc fusion)”, the lowest CBLN4-Fc concentration at which binding was detected worked out at 280 nM.
